The assay has as its target T1, TNF receptor-associated death domain protein, wild type (human, UniProt Q15628 1-312).
T1 sequence (looked up): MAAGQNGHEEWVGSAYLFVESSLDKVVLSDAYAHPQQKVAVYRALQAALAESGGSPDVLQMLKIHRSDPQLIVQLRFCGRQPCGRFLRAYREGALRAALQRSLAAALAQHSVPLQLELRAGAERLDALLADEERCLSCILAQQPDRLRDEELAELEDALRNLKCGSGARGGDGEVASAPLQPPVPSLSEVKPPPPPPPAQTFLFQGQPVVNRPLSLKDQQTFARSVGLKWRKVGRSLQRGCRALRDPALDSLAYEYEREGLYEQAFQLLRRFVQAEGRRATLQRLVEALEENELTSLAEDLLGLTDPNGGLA
Description: peptide competition on an immuno-purified complex.

Square brackets hold non-standard residues; d marks the D form. Ends that are not written are not given here. pS = N[C@@H](COP(=O)(O)O)C(=O)O

As to VRRLGL[pS]DHEIDRLELQNGRC (peptide, UniProt P19438 375-395, looked up) [phosphorylated peptide containing the S381XXE motif of TNFR1 (position 375–395)], the binding result is given as “binds”.

Values taken from article PMC3140568 (Journal of immunology (Baltimore, Md. : 1950), 2011).
